Reference: paper PMC4269169

Target: GST-FLAG-Pol12 of Candida glabrata (Candida glabrata)
Assay: pull-down

His6-SUMO-Stn1 of Candida glabrata (natural protein)
stoichiometry N: 1
